Experimental findings from patent US20240417437A1, “Linker Polypeptides” (Trutino Biosciences Inc., priority 2021, published 2024) are described below.

The subject of this data set is EMT6 breast cancer syngeneic model. As to the kind of experiment: Real-time whole-body imaging of Dylight 650 labelled IL-2 fusion proteins in tumors. As to conditions: 8 mg/kg IV once, each time-point over 96 hours, EMT6 tumor-bearing BALB/c mice. The format is in vivo. The protocol: The levels of IL-2 fusion proteins present in tumors in vivo were assessed by utilizing fluorescently labelled proteins and real-time whole-body imaging. Non-cleavable Construct GGG and Construct DD were conjugated to Dylight 650 probe according to the manufacturer's protocol (Dylight 650 Antibody labeling kit, ThermoFisher). […] BALB/c mice were subcutaneously inoculated with EMT6 breast cancer syngeneic model, and when the average tumor volume reached 240 mm^3, animals were randomized into 3 groups based on tumor volumes (n=2 mice per treatment group).
Following administration of a single dose of the labeled IL-2 fusion proteins to tumor-bearing mice, fluorescent images (excitation 640/emission 680 consistent with Dylight 650 probe ex/em spectra) were captured over 96 hours on an IVIS system (PerkinElmer, IVIS Lumina Series III) and are shown in FIG. 5A. The fluorescence intensity in tumor areas was quantified across the groups, average background tumor fluorescence (group 1) was subtracted from group 2 and 3 values at each time-point, and data were normalized to the initial fluorescence intensity of same amount of each labeled protein. […] This signifies next generation retention linker Construct DD accumulated and was retained in tumors at 2-fold higher levels compared to IL-2 fusion protein Construct GGG, lacking any targeting sequence.

B1: Construct DD: mIL2-2x(GHHPH)-MMPscr-2x(G4S)-mIL2Ra(1-215)-muIgG1Fc; pH heparin (protein)
chain: APTSSSTSSSTAEAQQQQQQQQQQQQHLEQLLMDLQELLSRMENYRNLKLPRMLTFKFYLPKQATELKDLQCLEDELGPLRHVLDLTQSKSFQLEDAENFISNIRVTVVKLKGSDNTFECQFDDESATVVDFLRRWIAFCQSIISTSPQGHHPHGHHPHGVRLGPGGGGGSGGGGSELCLYDPPEVPNATFKALSYKNGTILNCECKRGFRRLKELVYMRCLGNSWSSNCQCTSNSHDKSRKQVTAQLEHQKEQQTTTDMQKPTQSMHQENLTGHCREPPPWKHEDSKRIYHFVEGQSVHYECIPGYKALQRGPAISICKMKCGKTGWTQPQLTCVDEREHHRFLASEESQGSRNSSPESETSCPITTTDFPQPTETTAMTETFVLTMEYKGCKPCICTVPEVSSVFIFPPKPKDVLTITLTPKVTCVVVDISKDDPEVQFSWFVDDVEVHTAQTQPREEQFNSTFRSVSELPIMHQDWLNGKEFKCRVNSAAFPAPIEKTISKTKGRPKAPQVYTIPPPKEQMAKDKVSLTCMITDFFPEDITVEWQWNGQPAENYKNTQPIMDTDGSYFVYSKLNVQKSNWEAGNTFTCSVLHEGLHNHHTEKSLSHSPGK
modifications: Synthetic: Construct DD
notes: mIL2-2x(GHHPH)-MMPscr-2x(G4S)-mIL2Ra(1-215)-muIgG1Fc; pH heparin
For the molecule B1, the “tumor-associated fluorescence / level retained in tumors, fold higher compared to Construct GGG” value was “roughly 2 fold”.
